Experiments:
Assay in all cases: ELISA
Conditions in all cases: both partners purified
[1] = molecular target: T1, recombinant full-length Pfs48/45 (Plasmodium falciparum 3D7, UniProt Q8I6T1)
[2] = molecular target: T1, recombinant full-length Pfs48/45; remark: listed apart in the source
Pfs48/45 D1-2 = Pfs48/45 D1-2 (Plasmodium falciparum 3D7, UniProt Q8I6T1)
Chain of Pfs48/45 D1-2 (Q8I6T1 28-289): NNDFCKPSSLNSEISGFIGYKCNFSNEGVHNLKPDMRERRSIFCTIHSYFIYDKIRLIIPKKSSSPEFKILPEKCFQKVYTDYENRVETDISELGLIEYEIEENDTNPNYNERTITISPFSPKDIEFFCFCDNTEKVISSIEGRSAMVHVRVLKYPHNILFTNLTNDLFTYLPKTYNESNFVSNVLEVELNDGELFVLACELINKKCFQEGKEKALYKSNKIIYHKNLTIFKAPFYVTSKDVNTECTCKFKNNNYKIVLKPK

T1 sequence (Q8I6T1 28-428): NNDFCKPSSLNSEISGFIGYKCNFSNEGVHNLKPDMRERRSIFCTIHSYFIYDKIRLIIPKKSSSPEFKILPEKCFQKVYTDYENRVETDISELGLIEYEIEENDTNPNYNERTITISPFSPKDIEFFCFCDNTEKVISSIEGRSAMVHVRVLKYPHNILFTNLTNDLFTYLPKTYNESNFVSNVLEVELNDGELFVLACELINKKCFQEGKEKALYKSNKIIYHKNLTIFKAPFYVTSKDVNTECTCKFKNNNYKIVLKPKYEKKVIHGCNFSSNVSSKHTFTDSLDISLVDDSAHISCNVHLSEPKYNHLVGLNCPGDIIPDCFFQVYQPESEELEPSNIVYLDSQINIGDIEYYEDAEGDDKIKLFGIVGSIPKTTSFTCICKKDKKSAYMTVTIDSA

B1: RUPA-67 (antibody, V domains shown)
VH: QVQLLESGPGLVKPSETLSLTCTVSGASISTSYWSWIRQPAGKGLEWIGRFHISESSNYNPSLKSRLTLSADTSKNQVSLRLSSVTAADTAVYYCARDVSPEECVSTKCYRRPGYMDVWGKGTSVTVSS
VL: DIQMTQSPSSLSASVGDRVTITCRASQSIRNYLNWYLQKPGKAPKLLIFGASSLQSGVPSRFSGSGSGTDFTLTISSLLPEDFATYYCQQSYTTPRTFGQGTKVEIK
notes: human IgG1; source: recombinant human IgG1, 293T (Protein A purified) or GenScript
[1]
  binding result: binds

B2: RUPA-94 (antibody, V domains shown)
VH: QVQLRESGPGLVKPSETLSLTCSVSGGSITSSPYYWAWIRQPPGKGLEWIGSIYYSGGAYYNPSLKSRVTMSVDTSKNQFSLKVNSVTAADTAVYYCARRPNPGFWGGGYYFDYWGQGTLVTVSS
VL: QSALTQPASVSGSPGQSITISCTGSSSDVGSYNLVSWYQHHPGKAPKLMISEVSKRPSGVSDRFSGSKSGNTASLTISGLQAEDEADYYCCSYADSSTRNYVFGTGTKVTVL
notes: as for B1
[2]
  binding result: binds
Pfs48/45 D1-2
  binding result: binds

B3: RUPA-114 (antibody, V domains shown)
VH: QVYLVQSGAEVKKPGASVKVSCKASGYDFTSYGIAWVRQAPGQGLEWMGWIGGYDDKTDYAQNLQGRFTVTTDTSTSTAYMELRSLKSDDTAVYYCARGGDRGDGLRFYYFALDVWGQGTTVTVSS
VL: DIVLAQSPGTLSLSPGEGATLSCRASQSIYNSYLAWYQHKPGQAPRLLIYGASSRATGIPDRFSGSGSGTDFTLTISRLEPEDFAVYYCQLYGRSSWTFGQGTKVEIK
notes: as for B1
[2]
  binding result: binds
Pfs48/45 D1-2
  binding result: binds

B4: RUPA-116 (antibody, V domains shown)
VH: QVQLQQWGAGLLKPSETLSLTCVVYGGSFSDYYWSWVRQPPGKGLEWIGEVNHSGTTNYNPSLKSRLTISVDTSKNQISLRLNSLTAADTAVYYCARRSSGYYRQSRYTGWFDPWGRGTLVTVSS
VL: EIVMTQSPATLSVSPGERATLSCRASQSITSNLAWYQQKPGQAPRLLIYGASTRATGIPARFSGSGSGTEFTLTISSLQSDDFALYYCQQYNNWPGLTFGGGTKVEIK
notes: as for B1
[2]
  binding result: binds
Pfs48/45 D1-2
  binding result: binds

B5: RUPA-119 (antibody, V domains shown)
VH: QVRLQQWGAGLLKPSETLSLTCGVSGGSFSDYYWTWIRQPPGKGLEWIGDISHSANTNYNESLQSRLTISVDTSKTQFSLRLASVTAADTALYFCARRSSGWYRQSRYTGWFDPWGQGTLVTVSS
VL: EIVMTQSPATLSVSPGERATLSCRASQSITSNLAWYQQKPGQAPRLLIYGASTRAAGIPARFSGSGSGTEFTLTISTLQSEDFAVYYCQQYNNWPGLTFGGGTTVEIK
notes: as for B1
[2]
  binding result: binds
Pfs48/45 D1-2
  binding result: binds

B6: RUPA-122 (antibody, V domains shown)
VH: QITLKESGPTLVKPTQTLMLTCSVSGFSLSNNGVAVGWVRQPPGKALEWLALIYWNDDSFYRPSLKSRLTINKDTSKNQVVLTMTNVAPVDTATYFCARTMKKITMIRGVPYEGGVQGFDPWGPGILVTVSS
VL: DIQMTQSPSSLSASVGDRVTITCRASQGIRDDLAWYQQKPGKAPERLIYAASSLQSGVPSRFSGSGYGTEFTLTISSLQPEDFATYYCQQYSGYFTFGGGTKVEIN
notes: as for B1
[2]
  binding result: binds
Pfs48/45 D1-2
  binding result: binds

B7: RUPA-130 (antibody, V domains shown)
VH: EVQLVESGGGLVKPGGSLRLSCEASGFTFRNAWMSWVRQAPGKGLEWVGRIKSYIDGGTADYAAPVKGRFSISRDDSKNTLFVQMNSLKTEDTAVYYCTTDSWAGEVGNYYFDNWGQGTLVTVSS
VL: QSALTQPASVSGSPGQSITISCTGTSSDVGSYNFVSWYQQHPGKAPKLMIYQVTWRPSGVSNRFSGSKSGNTASLTISGLQAEDEADYYCCSYSKSSTYVFGTGTKVSVL
notes: source: recombinant human IgG1, 293T (Protein A purified) or GenScript
[2]
  binding result: binds
Pfs48/45 D1-2
  binding result: binds

B8: RUPA-141 (antibody, V domains shown)
VH: EVQLVESGGGLVQPGESLRLSCAASGFTFNTYWMTWVRQAPGKGLEWVANINQDGSQKNYVDSVKGRFTVSRDNAKKSLFLQMNSLRAEDTAVYYCARDNGARYSGVWYDGWYDAFDIWGRGTVLTVSS
VL: AIQMTQSPSSLSASVGDRVTITCRASQGIKNDLGWYQQKTGKAPKLLIYAASSLQSGVPSRFSGSGSGTDFTLTISSLQPEDFATYYCLQDYNYPRTFGQGTKVEIK
notes: as for B7
[2]
  binding result: binds

B9: RUPA-155 (antibody, V domains shown)
VH: QVQLQQWGAGLLKPSETLSLTCAVEGDSLGDYYWSWIRQPPGKGLEWIGDINHSGTTNYIPSLKSRVTISVDSSRNQFSLRLNFVTAADTATYFCARRASGWYRQSRYTGWFDPWGQGTLVTVSS
VL: EIVMTQSPATLSVSPGERATLSCRASHSINSNVAWYQQKPGQAPRLLIYGASTRATGIPARFSGSGSGTEFTLTISSLQTEDFAVYYCQQYNNWPGLSFGGGTKVEIK
notes: as for B1
[2]
  binding result: binds
Pfs48/45 D1-2
  binding result: binds

B10: RUPA-156 (antibody, V domains shown)
VH: EVQLVESGGGLVQPGGSLRLSCVVSGFTFSRYSMYWVRQAPGKGPEWVSYIDSTGTTIYYADSVKGRFTISRDNAKSSLSLQMSSLRDDDRGVYYCARDGRKDSGSFLDHWGQGTLVTVSS
VL: DIQMTQSPSSLSASVGDRVTITCRASQSISEWLAWYQQKPGKAPRLLIYQASSLQSGVPSRFSGSGSGTEFTLTISSLQSDDFATYYCQQFDTYWTFGQGTKVEIK
notes: as for B1
[2]
  binding result: binds
Pfs48/45 D1-2
  binding result: binds

B11: RUPA-158 (antibody, V domains shown)
VH: QVQLVQPGAEVKKPGASVKVSCKASGYIFSTYGISWVRQAPGQGLEWMGWTSSYSDDTNYAQKFQDRVTMTTDTSTSTAYMELRSLRSGDTAVYYCARGGDRGDGPRYYYYGLDVWGQGTTVTVSS
VL: EIVLTQSPSTLSLSPGERATLSCRASQSLYNSYLAWYQQKPGQAPRLLIYGASSRATGIPGRFSGSGSGTDFSLTISRLEPEDFAVYYCSLYGRSSWTFGQGTKVEIK
notes: as for B1
[2]
  binding result: binds

B12: RUPA-164 (antibody, V domains shown)
VH: QVQLQESGPGLVKPSETLSLTCSVSGGSMTSFYWSWIRQPPGKGLEWIGYVYYNGTTNYKPSLKSRVTISVDMSKNQVSLKLSSVTAADTAVYYCARDRVVGSYYYGMDVWGQGTTVTVSS
VL: EIVLTQPPVSLSLSPGEGATLSCRASQSVSSSYLAWYQQKPGQAPRLLMYSASRRATGIPDRFTGSGSGTDFTLTISRLEPEDFALYYCQHYGGSPRETFGQGTKVEIK
notes: as for B1
[2]
  binding result: binds
Pfs48/45 D1-2
  binding result: binds

B13: RUPA-48 (antibody, V domains shown)
VH: EVQLVESGGGLVQPGRSLRLSCAASGFSFDDHAMHWVRQAPGKGLEWVSGISWNSGNIGYADSVKGRFTISRDNAKNSLYLQMNSLRPEDTALYHCAKDGGYCSGIRCYHLRGMDVWGQGTTVTVSS
VL: EIVLTQSPATLSLSPGERATLSCRASQSVTNYLAWYQQKPGQAPRLLIYDASNRATGIPARFSGSGSGTDFTLTISSLEPEDFGVYYCQQRSSWPPYTFGQGTKLEIK
notes: as for B1
[1]
  binding result: binds

B14: RUPA-51 (antibody, V domains shown)
VH: QVQLVQPGAEVKKPGASVKVSCKASGYIFSTYGISWVRQAPGQGLEWMGWTSSYSDDTNYAQKFQDRVTMTTDTSTSTAYMELRSLRSDDTAVYYCARGGDRGDGPRFYYYGLDVWGQGTTVTVSS
VL: EIVLTQSPGTLSLSPGERATLSCRASQSLYNSYLAWYQQKPGQAPRLLIYGASSRATGIPGRFSGSGSGTDFSLTISRLEPEDFAVYYCSLYGRSSWTFGQGTKVEIK
notes: as for B1
[1]
  binding result: binds
